Measurements published in patent publication US20180155451A1 (published 2018).

B1: GpH7-A5/GpH7-B3 variant (Y300_14T)/GpL16-k0 (antibody, human IgG1, kappa)
heavy 1: not shown
heavy 2: not shown
light: DIVMTQSPLSLPVTPGEPASISCQASESLVHSNRNTYLHWYLQKPGQSPQLLIYKVSNRFSGVPDRFSGSGSGTDFTLKISRVEAEDVGVYYCSQNTHVPPTFGQGTKVEIERTVAAPSVFIFPPSDEQLKSGTASVVCLLNNFYPREAKVQWKVDNALQSGNSQESVTEQDSKDSTYSLSSTLTLSKADYEKHKVYACEVTHQGLSSPVTKSFNRGEC
notes: Heterodimerized; only the B3 chain altered; also called He Ab Y300_14T
B2: GpH7-A5/GpH7-B3 variant (Y296_12R)/GpL16-k0 (antibody, human IgG1, kappa)
heavy 1: not shown
heavy 2: not shown
light: B1 light
notes: Heterodimerized; only the B3 chain altered; also called He Ab Y296_12R
B3: GpH7-A5/GpH7-B3 variant (T335_05P)/GpL16-k0 (antibody, human IgG1, kappa)
heavy 1: not shown
heavy 2: not shown
light: B1 light
notes: Heterodimerized; only the B3 chain altered; also called He Ab T335_05P
B4: GpH7-A5/GpH7-B3 variant (Y296_20W)/GpL16-k0 (antibody, human IgG1, kappa)
heavy 1: not shown
heavy 2: not shown
light: B1 light
notes: Heterodimerized; only the B3 chain altered; also called He Ab Y296_20W
B5: GpH7-A5/GpH7-B3 variant (A330_10E)/GpL16-k0 (antibody, human IgG1, kappa)
heavy 1: not shown
heavy 2: not shown
light: B1 light
notes: Heterodimerized; only the B3 chain altered; also called He Ab A330_10E
B6: GpH7-A5/GpH7-B3 variant (S337_10E)/GpL16-k0 (antibody, human IgG1, kappa)
heavy 1: not shown
heavy 2: not shown
light: B1 light
notes: Heterodimerized; only the B3 chain altered; also called He Ab S337_10E
B7: GpH7-A5/GpH7-B3 variant (T335_10E)/GpL16-k0 (antibody, human IgG1, kappa)
heavy 1: not shown
heavy 2: not shown
light: B1 light
notes: Heterodimerized; only the B3 chain altered; also called He Ab T335_10E
B8: GpH7-A5/GpH7-B3 variant (T335_08L)/GpL16-k0 (antibody, human IgG1, kappa)
heavy 1: not shown
heavy 2: not shown
light: B1 light
notes: Heterodimerized; only the B3 chain altered; also called He Ab T335_08L
B9: GpH7-A5/GpH7-B3 variant (Y300_20W)/GpL16-k0 (antibody, human IgG1, kappa)
heavy 1: not shown
heavy 2: not shown
light: B1 light
notes: Heterodimerized; only the B3 chain altered; also called He Ab Y300_20W
B10: GpH7-A5/GpH7-B3 variant (T335_18N)/GpL16-k0 (antibody, human IgG1, kappa)
heavy 1: not shown
heavy 2: not shown
light: B1 light
notes: Heterodimerized; only the B3 chain altered; also called He Ab T335_18N
B11: GpH7-A5/GpH7-B3 variant (T335_12R)/GpL16-k0 (antibody, human IgG1, kappa)
heavy 1: not shown
heavy 2: not shown
light: B1 light
notes: Heterodimerized; only the B3 chain altered; also called He Ab T335_12R
B12: GpH7-A5/GpH7-B3 variant (H268_18N)/GpL16-k0 (antibody, human IgG1, kappa)
heavy 1: not shown
heavy 2: not shown
light: B1 light
notes: Heterodimerized; only the B3 chain altered; also called He Ab H268_18N
B13: GpH7-A5/GpH7-B3 variant (S337_08L)/GpL16-k0 (antibody, human IgG1, kappa)
heavy 1: not shown
heavy 2: not shown
light: B1 light
notes: Heterodimerized; only the B3 chain altered; also called He Ab S337_08L
B14: GpH7-A5/GpH7-B3 variant (S337_09D)/GpL16-k0 (antibody, human IgG1, kappa)
heavy 1: not shown
heavy 2: not shown
light: B1 light
notes: Heterodimerized; only the B3 chain altered; also called He Ab S337_09D
B15: GpH7-A5/GpH7-B3 variant (A330_01G)/GpL16-k0 (antibody, human IgG1, kappa)
heavy 1: not shown
heavy 2: not shown
light: B1 light
notes: Heterodimerized; only the B3 chain altered; also called He Ab A330_01G
B16: GpH7-A5/GpH7-B3 variant (H268_09D)/GpL16-k0 (antibody, human IgG1, kappa)
heavy 1: not shown
heavy 2: not shown
light: B1 light
notes: Heterodimerized; only the B3 chain altered; also called He Ab H268_09D
B17: GpH7-A5/GpH7-B3 variant (I336_09D)/GpL16-k0 (antibody, human IgG1, kappa)
heavy 1: not shown
heavy 2: not shown
light: B1 light
notes: Heterodimerized; only the B3 chain altered; also called He Ab I336_09D
B18: GpH7-A5/GpH7-B3 variant (I336_12R)/GpL16-k0 (antibody, human IgG1, kappa)
heavy 1: not shown
heavy 2: not shown
light: B1 light
notes: Heterodimerized; only the B3 chain altered; also called He Ab I336_12R
B19: GpH7-A5/GpH7-B3 variant (T335_16H)/GpL16-k0 (antibody, human IgG1, kappa)
heavy 1: not shown
heavy 2: not shown
light: B1 light
notes: Heterodimerized; only the B3 chain altered; also called He Ab T335_16H
B20: GpH7-A5/GpH7-B3 variant (A330_20W)/GpL16-k0 (antibody, human IgG1, kappa)
heavy 1: not shown
heavy 2: not shown
light: B1 light
notes: Heterodimerized; only the B3 chain altered; also called He Ab A330_20W
B21: GpH7-A5/GpH7-B3 variant (S337_15Y)/GpL16-k0 (antibody, human IgG1, kappa)
heavy 1: not shown
heavy 2: not shown
light: B1 light
notes: Heterodimerized; only the B3 chain altered; also called He Ab S337_15Y
B22: GpH7-A5/GpH7-B3 variant (I336_11K)/GpL16-k0 (antibody, human IgG1, kappa)
heavy 1: not shown
heavy 2: not shown
light: B1 light
notes: Heterodimerized; only the B3 chain altered; also called He Ab I336_11K
B23: GpH7-A5/GpH7-B3 variant (Y300_03V)/GpL16-k0 (antibody, human IgG1, kappa)
heavy 1: not shown
heavy 2: not shown
light: B1 light
notes: Heterodimerized; only the B3 chain altered; also called He Ab Y300_03V
B24: GpH7-A5/GpH7-B3 variant (Y300_19Q)/GpL16-k0 (antibody, human IgG1, kappa)
heavy 1: not shown
heavy 2: not shown
light: B1 light
notes: Heterodimerized; only the B3 chain altered; also called He Ab Y300_19Q
B25: GpH7-A5/GpH7-B3 variant (A330_04F)/GpL16-k0 (antibody, human IgG1, kappa)
heavy 1: not shown
heavy 2: not shown
light: B1 light
notes: Heterodimerized; only the B3 chain altered; also called He Ab A330_04F
B26: GpH7-A5/GpH7-B3 variant (I336_13S)/GpL16-k0 (antibody, human IgG1, kappa)
heavy 1: not shown
heavy 2: not shown
light: B1 light
notes: Heterodimerized; only the B3 chain altered; also called He Ab I336_13S
B27: GpH7-B3 variant (Y300_19Q)/GpL16-k0 (antibody, human IgG1, kappa)
heavy: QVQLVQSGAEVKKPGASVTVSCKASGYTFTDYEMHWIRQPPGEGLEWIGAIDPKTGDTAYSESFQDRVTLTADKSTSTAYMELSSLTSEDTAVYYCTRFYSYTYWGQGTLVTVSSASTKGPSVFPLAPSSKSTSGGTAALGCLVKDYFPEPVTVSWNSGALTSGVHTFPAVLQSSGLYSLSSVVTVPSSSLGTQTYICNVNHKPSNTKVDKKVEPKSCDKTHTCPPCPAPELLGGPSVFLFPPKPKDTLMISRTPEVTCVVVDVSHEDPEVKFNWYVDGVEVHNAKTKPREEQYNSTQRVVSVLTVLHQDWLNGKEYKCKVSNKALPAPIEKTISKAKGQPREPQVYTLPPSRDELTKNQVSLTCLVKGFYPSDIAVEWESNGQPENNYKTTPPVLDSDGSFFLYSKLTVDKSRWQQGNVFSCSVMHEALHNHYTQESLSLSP
light: B1 light
notes: Homodimerized; both H chains altered; also called Ho Ab Y300_19Q
B28: GpH7-B3 variant (Y300_20W)/GpL16-k0 (antibody, human IgG1, kappa)
heavy: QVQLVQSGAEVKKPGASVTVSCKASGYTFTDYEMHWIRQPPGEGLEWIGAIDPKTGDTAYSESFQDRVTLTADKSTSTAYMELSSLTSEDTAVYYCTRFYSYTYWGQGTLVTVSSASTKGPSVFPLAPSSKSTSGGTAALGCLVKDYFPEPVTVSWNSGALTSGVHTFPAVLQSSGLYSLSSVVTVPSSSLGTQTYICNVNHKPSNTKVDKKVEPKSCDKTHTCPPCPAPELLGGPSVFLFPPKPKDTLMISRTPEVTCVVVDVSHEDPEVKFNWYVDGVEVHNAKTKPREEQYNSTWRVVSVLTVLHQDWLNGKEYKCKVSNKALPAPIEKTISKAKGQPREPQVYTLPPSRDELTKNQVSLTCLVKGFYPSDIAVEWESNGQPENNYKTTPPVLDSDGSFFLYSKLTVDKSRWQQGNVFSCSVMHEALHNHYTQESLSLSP
light: B1 light
notes: Homodimerized; both H chains altered; also called Ho Ab Y300_20W

target: T1, FcγRIa extracellular domain with C-terminal His tag (human, UniProt P12314 16-292); assay: SPR (Biacore), captured antibody, FcγRIa analyte; relative to GpH7-A5/GpH7-B3/GpL16-k0 = 100
T1 construct: extracellular domain; Expressed in FreeStyle293 cells; used as analyte in Biacore; also called FcgRI; 1a; not shown: His tag at the C terminus
T1 sequence (P12314 16-292): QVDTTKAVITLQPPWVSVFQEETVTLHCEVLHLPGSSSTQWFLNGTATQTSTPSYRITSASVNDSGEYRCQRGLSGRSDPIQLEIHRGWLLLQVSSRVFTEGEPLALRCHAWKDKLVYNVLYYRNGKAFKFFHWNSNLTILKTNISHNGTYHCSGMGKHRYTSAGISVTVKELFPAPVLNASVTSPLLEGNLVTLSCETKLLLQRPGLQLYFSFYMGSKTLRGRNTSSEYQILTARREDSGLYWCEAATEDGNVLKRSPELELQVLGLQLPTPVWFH

He/Con_1a | Binder
112 % of control | B1
106 % of control | B2
106 % of control | B3
111 % of control | B4
107 % of control | B5
106 % of control | B6
109 % of control | B7
115 % of control | B8
112 % of control | B9
106 % of control | B10
113 % of control | B11
108 % of control | B12
105 % of control | B13
106 % of control | B14
106 % of control | B15
110 % of control | B16
104 % of control | B17
102 % of control | B18
106 % of control | B19
108 % of control | B20
104 % of control | B21
105 % of control | B22
117 % of control | B23
112 % of control | B24
106 % of control | B25
102 % of control | B26

target: T1, FcγRIa extracellular domain with …; assay: SPR (Biacore), captured antibody, FcγRIa analyte; relative to GpH7-B3/GpL16-k0 = 100

Ho/Con_1a | Binder
110 % of control | B27
110 % of control | B28
